Assay results: article PMC8319299 (2020)
Where no end group is shown, it is not given here. [ ]: non-standard residue; d: D form. Lys(Me3) = C[N+](C)(C)CCCC[C@H](N)C(=O)O

Molecular target: EED (amino acids 40-441) (human, UniProt O75530-1 40-441)
Assay: FP

EED (amino acids 40-441), sequence (O75530 40-441): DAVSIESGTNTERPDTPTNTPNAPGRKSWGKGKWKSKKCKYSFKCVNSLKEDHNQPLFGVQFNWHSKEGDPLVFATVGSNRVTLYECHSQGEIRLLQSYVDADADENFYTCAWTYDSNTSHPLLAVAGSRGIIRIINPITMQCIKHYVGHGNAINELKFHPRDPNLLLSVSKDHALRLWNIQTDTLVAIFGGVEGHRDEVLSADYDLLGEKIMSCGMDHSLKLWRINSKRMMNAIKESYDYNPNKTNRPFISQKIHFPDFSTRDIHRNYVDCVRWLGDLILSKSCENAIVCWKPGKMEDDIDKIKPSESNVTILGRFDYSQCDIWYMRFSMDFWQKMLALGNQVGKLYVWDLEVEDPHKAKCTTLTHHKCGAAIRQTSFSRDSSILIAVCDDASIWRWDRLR

Kd: 223 µM
Binder: LK[Lys(Me3)]APG [PALI1-K1241me3 peptide with the F1242A mutation]
